Data: US20230365714A1 (published 2023)
Changes are numbered by the printed parent chain.

B1: IgG1-ROR2-A-HC3LC2-FEAR (antibody, V domains shown)
VH: EVQLLESGGGLVQPGGSLRLSCTVSGFSLSSYSMSWVRQAPGKGLEWIGVIYVNSKTWYANWAKGRFTISKTSTTVYLQMNSLRAEDTATYYCARGDAGYTTNSWLWGQGTLVTVSS
VL: AFELTQSPSSLSASVGDRVTITCQASESIDNYLSWYQQKPGKAPKLLIYQAFKLASGVPSRFRGSGSGTDFTLTISSLQSEDFATYYCQSYSGISTTAFGGGTEVVIK
notes: Humanized variant
B2: IgG1-ROR2-A-HC1LC2-FEAR (antibody, V domains shown)
VH: QSVLESGGGLVQPGGSLRLSCTVSGFSLSSYSMSWVRQAPGKGLEWIGVIYVNSKTWYANWAKGRFTISKTSTTVDLKITSPTAEDTATYFCARGDAGYTTNSWLWGQGTLVTVSS
VL: B1 VL
notes: Humanized variant
B3: IgG1-ROR2-A-HC7LC2-FEAR (antibody, V domains shown)
VH: EVQLLESGGGLVQPGGSLRLSCAASGFSLSSYSMSWVRQAPGKGLEWIGVIYVNSKTWYADSVKGRFTISKDNSKNTVYLQMNSLRAEDTATYYCARGDAGYTTNSWLWGQGTLVTVSS
VL: B1 VL
notes: Humanized variant
B4: IgG1-ROR2-A-HC1LC1-FEAR (antibody, V domains shown)
VH: B2 VH
VL: B1 VL with L33C
notes: Humanized variant
B5: IgG1-ROR2-A-HC5LC4-FEAR (antibody)
heavy: EVQLLESGGGLVQPGGSLRLSCAASGFSLSSYSMSWVRQAPGKGLEWIGVIYVNSKTWYANWAKGRFTISKDNSKNTVYLQMNSLRAEDTATYYCARGDAGYTTNSWLWGQGTLVTVSSASTKGPSVFPLAPSSKSTSGGTAALGCLVKDYFPEPVTVSWNSGALTSGVHTFPAVLQSSGLYSLSSVVTVPSSSLGTQTYICNVNHKPSNTKVDKRVEPKSCDKTHTCPPCPAPEFEGGPSVFLFPPKPKDTLMISRTPEVTCVVVAVSHEDPEVKFNWYVDGVEVHNAKTKPREEQYNSTYRVVSVLTVLHQDWLNGKEYKCKVSNKALPAPIEKTISKAKGQPREPQVYTLPPSREEMTKNQVSLTCLVKGFYPSDIAVEWESNGQPENNYKTTPPVLDSDGSFFLYSRLTVDKSRWQQGNVFSCSVMHEALHNHYTQKSLSLSPGK
VL: B1 VL with A1D, F2I, E3Q, S80P, E104K, V106E
notes: Humanized variant
B6: IgG1-ROR2-A-HC6LC3-FEAR (antibody)
heavy: B5 heavy with A23T, A24V, N61D, W62S, A63V
VL: B1 VL with S80P, E104K, V106E
notes: Humanized variant
B7: IgG1-ROR2-A-HC5LC1-FEAR (antibody, V domains shown)
VH: B3 VH with D61N, S62W, V63A
VL: B1 VL with L33C
notes: Humanized variant
B8: IgG1-ROR2-A-HC3LC3-FEAR (antibody)
heavy: EVQLLESGGGLVQPGGSLRLSCTVSGFSLSSYSMSWVRQAPGKGLEWIGVIYVNSKTWYANWAKGRFTISKTSTTVYLQMNSLRAEDTATYYCARGDAGYTTNSWLWGQGTLVTVSSASTKGPSVFPLAPSSKSTSGGTAALGCLVKDYFPEPVTVSWNSGALTSGVHTFPAVLQSSGLYSLSSVVTVPSSSLGTQTYICNVNHKPSNTKVDKRVEPKSCDKTHTCPPCPAPEFEGGPSVFLFPPKPKDTLMISRTPEVTCVVVAVSHEDPEVKFNWYVDGVEVHNAKTKPREEQYNSTYRVVSVLTVLHQDWLNGKEYKCKVSNKALPAPIEKTISKAKGQPREPQVYTLPPSREEMTKNQVSLTCLVKGFYPSDIAVEWESNGQPENNYKTTPPVLDSDGSFFLYSRLTVDKSRWQQGNVFSCSVMHEALHNHYTQKSLSLSPGK
VL: B1 VL with S80P, E104K, V106E
notes: Humanized variant
B9: IgG1-ROR2-A-HC4LC1-FEAR (antibody, V domains shown)
VH: B3 VH with A23T, A24V, D61N, S62W, V63A
VL: B1 VL with L33C
notes: Humanized variant
B10: IgG1-ROR2-A-HC7LC4-FEAR (antibody)
heavy: B5 heavy with N61D, W62S, A63V
VL: B1 VL with A1D, F2I, E3Q, S80P, E104K, V106E
notes: Humanized variant
B11: IgG1-ROR2-A-HC7LC3-FEAR (antibody)
heavy: B5 heavy with N61D, W62S, A63V
VL: B1 VL with S80P, E104K, V106E
notes: Humanized variant
B12: IgG1-ROR2-A-HC3LC4-FEAR (antibody)
heavy: B8 heavy
VL: B1 VL with A1D, F2I, E3Q, S80P, E104K, V106E
notes: Humanized variant
B13: IgG1-ROR2-A-HC4LC2-FEAR (antibody, V domains shown)
VH: B3 VH with A23T, A24V, D61N, S62W, V63A
VL: B1 VL
notes: Humanized variant
B14: IgG1-ROR2-A-HC5LC2-FEAR (antibody, V domains shown)
VH: B3 VH with D61N, S62W, V63A
VL: B1 VL
notes: Humanized variant
B15: IgG1-ROR2-A-HC4LC4-FEAR (antibody)
heavy: B5 heavy with A23T, A24V
VL: B1 VL with A1D, F2I, E3Q, S80P, E104K, V106E
notes: Humanized variant
B16: IgG1-ROR2-A-HC3LC1-FEAR (antibody, V domains shown)
VH: B1 VH
VL: B1 VL with L33C
notes: Humanized variant
B17: IgG1-ROR2-A-HC6LC1-FEAR (antibody, V domains shown)
VH: B3 VH with A23T, A24V
VL: B1 VL with L33C
notes: Humanized variant
B18: IgG1-ROR2-A-HC6LC2-FEAR (antibody, V domains shown)
VH: B3 VH with A23T, A24V
VL: B1 VL
notes: Humanized variant
B19: IgG1-ROR2-A-HC6LC4-FEAR (antibody)
heavy: B5 heavy with A23T, A24V, N61D, W62S, A63V
VL: B1 VL with A1D, F2I, E3Q, S80P, E104K, V106E
notes: Humanized variant
B20: IgG1-ROR2-A-HC5LC3-FEAR (antibody)
heavy: B5 heavy
VL: B1 VL with S80P, E104K, V106E
notes: Humanized variant
B21: IgG1-ROR2-A-HC7LC1-FEAR (antibody, V domains shown)
VH: B3 VH
VL: B1 VL with L33C
notes: Humanized variant

These binders were tested against T1, his-tagged ROR2 extracellular domain (ROR2-ECD, G&P Biosciences, cat. no. FCL0192) (human, UniProt Q01974 34-403) (assay: BLI (Octet), antibody on anti-human IgG Fc sensor, ROR2-ECD 1.56-100 nM as analyte).
T1 construct: Bought protein; also called human ROR2-ECD; recombinant human ROR2-ECD; not shown: his tag
T1 sequence (Q01974 34-403): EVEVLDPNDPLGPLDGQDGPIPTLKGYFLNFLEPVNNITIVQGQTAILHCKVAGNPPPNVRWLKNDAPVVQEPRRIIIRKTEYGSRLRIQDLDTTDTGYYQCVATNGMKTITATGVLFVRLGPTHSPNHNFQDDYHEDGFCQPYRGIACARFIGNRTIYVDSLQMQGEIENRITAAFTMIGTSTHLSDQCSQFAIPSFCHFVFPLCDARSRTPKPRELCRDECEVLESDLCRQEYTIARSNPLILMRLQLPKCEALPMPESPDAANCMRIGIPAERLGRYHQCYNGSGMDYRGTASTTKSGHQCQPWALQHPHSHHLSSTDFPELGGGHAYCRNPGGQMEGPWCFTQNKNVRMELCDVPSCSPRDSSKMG

Binder | Kd | koff | kon
B1 | 1.8 nM | 0.001 s⁻¹ | 560000 M⁻¹ s⁻¹
B2 | 1.9 nM | 0.0011 s⁻¹ | 590000 M⁻¹ s⁻¹
B3 | 4.7 nM | 0.0025 s⁻¹ | 540000 M⁻¹ s⁻¹
B4 | 1.6 nM | 0.00096 s⁻¹ | 590000 M⁻¹ s⁻¹
B5 | 1.9 nM | 0.0011 s⁻¹ | 550000 M⁻¹ s⁻¹
B6 | 4 nM | 0.0023 s⁻¹ | 560000 M⁻¹ s⁻¹
B7 | 1.6 nM | 0.00088 s⁻¹ | 540000 M⁻¹ s⁻¹
B8 | 1.8 nM | 0.001 s⁻¹ | 550000 M⁻¹ s⁻¹
B9 | 2.1 nM | 0.0011 s⁻¹ | 540000 M⁻¹ s⁻¹
B10 | 5.6 nM | 0.0032 s⁻¹ | 570000 M⁻¹ s⁻¹
B11 | 5.1 nM | 0.0028 s⁻¹ | 550000 M⁻¹ s⁻¹
B12 | 1.5 nM | 0.00087 s⁻¹ | 580000 M⁻¹ s⁻¹
B13 | 1.6 nM | 0.00095 s⁻¹ | 590000 M⁻¹ s⁻¹
B14 | 1.8 nM | 0.00097 s⁻¹ | 550000 M⁻¹ s⁻¹
B15 | 1.5 nM | 0.00092 s⁻¹ | 620000 M⁻¹ s⁻¹
B16 | 1.6 nM | 0.00088 s⁻¹ | 550000 M⁻¹ s⁻¹
B17 | 3.1 nM | 0.0017 s⁻¹ | 560000 M⁻¹ s⁻¹
B18 | 3.9 nM | 0.0022 s⁻¹ | 560000 M⁻¹ s⁻¹
B19 | 4.4 nM | 0.0025 s⁻¹ | 570000 M⁻¹ s⁻¹
B20 | 1.7 nM | 0.00084 s⁻¹ | 510000 M⁻¹ s⁻¹
B21 | 3.8 nM | 0.0021 s⁻¹ | 540000 M⁻¹ s⁻¹
